Measurements published in publication PMC1373645, “Lactate production yield from engineered yeasts is dependent from the host background, the lactate dehydrogenase source and the lactate export” (Microbial Cell Factories, 2006).

Test system: T1, CC(=O)C(=O)O
T1 construct: full length, TTG start changed to ATG, untagged, expressed in S. cerevisiae GRF18U; crude cell extract; homotetramer
Experiment: cells, lysate or membranes
Type: biochemical, Lactiplantibacillus plantarum
Conditions: NADH, acetate buffer pH 5.6, 25 °C, no fructose 1,6-diphosphate, Table 2 prints 1,50

Substance: L. plantarum LDH (LpLDH, plLDH) (Lactiplantibacillus plantarum WCFS1; C302S/H54D)
- Km: 1.504 mM
